Assay results reported in patent US20140017168A1 (published 2014).
*: point of attachment. NOTA = O=C(O)CN1CCN(CC(=O)O)CCN(CC(=O)*)CC1; Aoc = NCCCCCCCC(=O)O

What was measured:
[1] = molecular target: T1, gastrin-releasing peptide receptor on PC-3 cells (UniProt P30550 1-384, limits assumed); assay: competition with 125I-BBN on PC-3 cells, inhibitor 250 to 2 nM
T1 construct: whole, on cells
Protocol: (§1) A NOTA-conjugated bombesin derivative (IMP468) was prepared as described above. […] Our initial experiment was to determine if IMP468 could specifically block bombesin from binding to PC-3 cells. We used IMP333 as a non-specific control. […] A range of 56 to 0.44 nM was used as our inhibitory concentrations.
This experiment was repeated using a commercially available BBN peptide. We increased the amount of inhibitory peptide from 250 to 2 nM to block the ¹²⁵I-BBN from binding to PC-3 cells.

[2] = molecular target: T1, gastrin-releasing peptide receptor on …; assay: competition with 125I-bombesin on 3x10^6 PC-3 cells, inhibitor 56 to 0.44 nM
Protocol: as §1

T1 sequence (P30550 whole entry): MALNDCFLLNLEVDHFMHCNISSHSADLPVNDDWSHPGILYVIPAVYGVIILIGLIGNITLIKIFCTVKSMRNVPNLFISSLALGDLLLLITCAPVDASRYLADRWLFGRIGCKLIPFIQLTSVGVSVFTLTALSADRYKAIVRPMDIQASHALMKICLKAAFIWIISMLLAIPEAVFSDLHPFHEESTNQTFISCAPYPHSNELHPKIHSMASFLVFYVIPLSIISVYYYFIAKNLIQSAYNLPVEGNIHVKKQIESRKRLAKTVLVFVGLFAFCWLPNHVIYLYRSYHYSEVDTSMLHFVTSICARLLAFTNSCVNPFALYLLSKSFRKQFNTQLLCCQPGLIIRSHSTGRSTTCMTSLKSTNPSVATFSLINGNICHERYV

B1: IMP468 (NOTA-NH-(CH2)7CO-Gln-Trp-Val-Trp-Ala-Val-Gly-His-Leu-Met-NH2) (peptide)
peptide: {NOTA-Aoc}-QWVWAVGHLM-NH2
SMILES: CSCC[C@H](NC(=O)[C@H](CC(C)C)NC(=O)[C@H](Cc1c[nH]cn1)NC(=O)CNC(=O)[C@@H](NC(=O)[C@H](C)NC(=O)[C@H](Cc1c[nH]c2ccccc12)NC(=O)[C@@H](NC(=O)[C@H](Cc1c[nH]c2ccccc12)NC(=O)[C@H](CCC(N)=O)NC(=O)CCCCCCCNC(=O)CN1CCN(CC(=O)O)CCN(CC(=O)O)CC1)C(C)C)C(C)C)C(N)=O
notes: also called NOTA-conjugated bombesin derivative; bombesin analogue
- IC50 [1]: 35.9 nM
- IC50 [2]: 21.5 nM
